The record followed here is US20200347135A1 (published 2020).

The labels stand for the following.
B1: AS06962 sdAb (VHH)
VHH: QVHLVDSGGGLVQPGGSLRLSCAASGSITSRNTMGWYRQVPGKQRELVALIATFVTHYADSVKGRFTISRDNARKMVFLEMNSLQPEDTGAYYCYVDVSPYWGRGTQVTVSS
B2: A31543 sdAb (VHH)
VHH: QVQLVESGGGKVQPGGSLRLSCAASGGTLDYYAIGWFRQAPGKEREAVSCISSSDGSTYYADSVKGRFTISRDNAKNTVYLQMNSLKPGDTAVYHCATDRACGSSWLGAESWAQGTQVTVSS
B3: AS25156_HCAb (antibody, V domains shown)
VH: EVQLVESGGGSVQSGGSLRLSCAVSGSGYSYSRGCFAWFQQRPGKEREGVAIINSDGHTRYSDSVQGRFIISQDKAKNTLYLQMNSLKPDDTAMYYCAYDCSQCYVLRDRLRLPDTFTDWGQGTQVTVSS
B4: AS24984_HCAb (antibody, V domains shown)
VH: QVHLMESGGGSVPSGGSLRLSCAVSGSGYSYSRGCFAWFQQRPGKEREGVAIINMDGHTRYSDSVQGRFIISQDKAKNTLHLQMNTLRPDDTAMYYCAYDRSQCYVLSDRLRLPGTFSDWGQGTQVTVSS
B5: AS25071_HCAb (antibody, V domains shown)
VH: B3 VH with V5A, R60A, C101R
B6: AS25149_HCAb (antibody, V domains shown)
VH: B3 VH with E1Q, R19K, T92A, C101R, S102N, R108L, D115G, T118S
B7: AS25164_HCAb (antibody, V domains shown)
VH: B3 VH with S32N, R60T, S62G, Y81D, C101R, S102N
B8: AS25067_HCAb (antibody, V domains shown)
VH: QVHLMESGGGAVQTGGSLRLSCAVSGISISPDCMGWFRQAPGKKREAVTTIFANTGSARYGDSVKGRFTSSQGNAKNTLYLQMDSVKLDDTGTYYCAARFTGGDCFDHQPLAWRFWGQGTQVTVSS
B9: AS25117_HCAb (antibody, V domains shown)
VH: EVQLAESGGGSVQAGGSLRLSCVISGTSISPDCMGWFRQAPGKKREAVMSIFTNTGSTRYGDSVKGRFTSSQGNAKNTLYLQMDSLKLDDTATYYCAARYTGGDCFNLEPLAWRFWGQGTQVTVSS
B10: AS25064_HCAb (antibody, V domains shown)
VH: QVQLVESGGGSVQAGGSLRLTCAATGYSWRPDCMGWYRQAAEKEREGVAVIDADGITSYADAAKGRFTISRDNNKITLYLQMLKPDDTGMYVCVVGWRVSSGGNCQFNDYWGQGTQVTVSS
B11: AS25119_HCAb (antibody, V domains shown)
VH: B10 VH with S17P, K75N, V95I
B12: AS25037_HCAb (antibody, V domains shown)
VH: EVQLAESGGGSVQAGGSLKLSCLASQWISSDCGMAWYRQAPGKERELVSRISSDDTTTYADSVKGRFTISQDSAKNTLYLQMNKLKTEDTGVYYCAAEAKSTITSLCYPLNYWGQGTQVTVSS
B13: AS25396_HCAb (antibody, V domains shown)
VH: QVHLMESGGGSVQAGGSLRLSCVVSGISISPDCMGWFRQAPGKKREAVATIFTNTRRTRYGDSVKGRVTSSQGNAKNTLYLKMDNLRHDDTATYYCAARYTGGDCFNLDPLSWRFWGQGTQVTVSS
B14: AS25115_HCAb (antibody, V domains shown)
VH: QVHLVESGGASVQAGGSLRLSCAATAYTASNYCMGWFRQSPGKEREAVASINDDGVTSYADSVKGRFTISQDSAKKTLYLQMNRLKPEDTAMYYCAATPDGYCYAERLSRWRYEFWGQGTQVTVSS
B15: AS25435_HCAb (antibody, V domains shown)
VH: B14 VH with H3Q, A10G, N31F, S40A, S58M, R66Q, K75T, D100E, R110T, E114T
B16: AS25222_HCAb (antibody, V domains shown)
VH: QIQLVESGGGSVQAGGSLRLSCAVTGISISPDCMGWFRQAPGKKREAVATIFTNTASTRYGDSVKGRFTSSQGNGKNTLYLQMDSLNVDDTATYYCAARYTGGNCFNLEPLAWHFWGQGTQVTVSS
B17: AS25457_HCAb (antibody, V domains shown)
VH: B9 VH with E1Q, A5V, V23A, I24V, T27I, M49A, S50T, G56R, L111V
B18: AS15899 sdAb (VHH)
VHH: QVQLVESGGGSVQAGGSLRLSCAASGYTAGSLCMGWFRQAPGKEREGVAAIYTGGGSTYYADSVKGRFTISQDNAKNTVYLQMNSLKPEDTAQYYCGAGSREDYCDRGYIYDHWGQGTQVTVSS
B19: AS15872 sdAb (VHH)
VHH: QVQLVESGGGLVQPGGSLTLSCAASGFTFSTAAMSWVRQVPEEGLEWVASIDSSGSRTYYAGSVKGRFTISRDNAKNTLYLQLNSLKAEDTAMYYCAKDHMSWLPRGQGTQVTVSS
B20: AS15892 sdAb (VHH)
VHH: QIQLVESGGGSVQAGGSLRLSCAASGFTDSSYCGAWFRQVPGKEREGVAIIDRYGGTMYKDSVKGRFTISKDTAKNILYLQMNSLKLEDTAMYYCAAAEYRGSSCDAESGYWGQGTQVTVSS
B21: AS15883 sdAb (VHH)
VHH: B20 VHH with I2V, Q3H, V5M, R19T, G26V, S31N, G34M, E99G, E108D
B22: AS15881 sdAb (VHH)
VHH: B20 VHH with I2V

Numbering of substitutions follows the chain as printed.

Sequence of recombinant PD-1 extracellular domain (ECD) protein (Q15116 25-170): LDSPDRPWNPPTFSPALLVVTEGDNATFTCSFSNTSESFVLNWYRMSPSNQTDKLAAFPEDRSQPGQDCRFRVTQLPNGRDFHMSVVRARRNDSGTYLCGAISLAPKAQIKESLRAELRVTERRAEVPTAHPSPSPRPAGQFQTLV
T1 sequence (Q15116 25-288): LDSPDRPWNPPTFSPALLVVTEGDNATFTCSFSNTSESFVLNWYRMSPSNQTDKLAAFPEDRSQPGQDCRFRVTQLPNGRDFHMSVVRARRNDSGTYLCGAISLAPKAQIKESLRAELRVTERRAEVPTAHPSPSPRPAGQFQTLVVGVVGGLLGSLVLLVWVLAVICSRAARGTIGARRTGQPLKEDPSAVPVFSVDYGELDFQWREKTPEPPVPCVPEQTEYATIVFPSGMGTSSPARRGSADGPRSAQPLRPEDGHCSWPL

One assay concerns the target T1, human PD-1 expressed on cells (UniProt Q15116 25-288). The assay can be described thus: FACS binding. In general terms: A flow cytometer gives signals particle by particle.
Molecule B1 gave an EC50 of 79.2 nM. Still for that read-out and setting: the figure for B2 is 41.2 nM.

A further assay concerns the target T1, human PD-1 expressed on cells. Put plainly: FACS binding. This is another data set of the same source.
As to B3, the response was half-maximal at 9.18 nM (EC50).

For a further assay the target is unchanged. Put plainly: FACS binding. This is another data set of the same source.
Regarding B4, the EC50 was 7.22 nM. On the same count and under the same terms, the figure for B5 is 4.74 nM; for B6 it is 10.7 nM.

On to B7, for which the 50% effective concentration (EC50) is 6.15 nM. Take B3: a half-maximal response (EC50) required 9.18 nM. As for B8, the EC50 came out at 4.96 nM. On the same count and under the same terms, the figure for B9 is 3.22 nM; for B10 it is 5.46 nM; for B11 it is 3.29 nM. Same read-out and setting: the same measure for B12: 6.62 nM. On the same count and under the same terms, the same measure for B13: 3.84 nM; for B14: 4.06 nM. For B15, a half-maximal effect (EC50) was put at 4.91 nM.

As to B16, the EC50 is 4.59 nM. B17 displayed an EC50 of 4.04 nM.

Another assay addresses recombinant PD-1 extracellular domain (ECD) protein (UniProt Q15116 25-170). The assay can be described thus: SPR. In general terms: SPR reads the build-up and loss of mass on a sensor chip optically.
In the case of B1, the Kd is 0.454 nM. Same read-out and setting: the figure for B18 is 3.22 nM; for B19 it is 14.5 nM; for B20 it is 2.67 nM. Same read-out and setting: the same measure for B21: 2.78 nM; for B22: 2.31 nM.

Another assay deals with T1, human PD-1 expressed on cells. The assay can be described thus: FACS competition with PD-L1 Fc.
Take B1: the IC50 came to 193 nM. Still for that read-out and setting: the figure for B2 is 21.1 nM.

For another assay the target is unchanged. The assay can be described thus: FACS ligand competition (PD-L1 Fc).
The molecule B4 yielded an IC50 of 4.59 nM. Still for that read-out and setting: the figure for B5 is 2.41 nM. In turn, B6 gave an IC50 of 8 nM.

The molecule B7 came in with an IC50 of 3.25 nM. On the same count and under the same terms, the same measure for B3: 6.04 nM; for B8: 3.51 nM; for B9: 2.06 nM.

As to B10, the IC50 is 2.91 nM.

B11 yielded an IC50 of 1.57 nM. With B12, the IC50 was found to be 6.58 nM. Same read-out and setting: the same measure for B13: 1.34 nM; for B14: 2.15 nM; for B15: 2.7 nM. On the same count and under the same terms, the figure for B16 is 1.66 nM; for B17 it is 2.44 nM.

By EC50 is commonly meant the concentration at which the effect is half-maximal. A high value points to a less potent agent. For orientation: Kd means the equilibrium constant for the complex coming apart. For orientation: IC50 means the point on the concentration scale where inhibition reaches its midpoint.
